Test results: publication PMC3034952 (Enzyme Research, 2011)

How the values were obtained:
[1] = target: T1, AtPDC E1α S298A mutant, H6-tagged (Arabidopsis thaliana, UniProt P52901 18-389, S298A); assay: SEC; purified recombinant AtPDC E1 on a Superose 12 column in 50 mM TES-NaOH, pH 7.4, 50 mM NaCl, 0.1 mM TPP, 0.2 mM MgCl2; fractions analysed by SDS-PAGE and immunoblotting; conditions: both partners purified
T1 sequence (looked up): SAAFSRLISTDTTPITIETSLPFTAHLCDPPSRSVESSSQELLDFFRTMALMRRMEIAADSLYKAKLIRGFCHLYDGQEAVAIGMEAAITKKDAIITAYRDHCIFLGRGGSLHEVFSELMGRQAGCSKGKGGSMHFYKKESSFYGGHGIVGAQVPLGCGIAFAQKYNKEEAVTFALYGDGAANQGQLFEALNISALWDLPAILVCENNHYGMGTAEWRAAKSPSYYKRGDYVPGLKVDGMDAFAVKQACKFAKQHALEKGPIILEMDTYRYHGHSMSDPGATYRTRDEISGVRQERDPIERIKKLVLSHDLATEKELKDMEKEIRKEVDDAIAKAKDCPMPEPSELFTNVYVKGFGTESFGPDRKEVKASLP

[2] = target: T2, AtPDC E1α S292D/S298A double mutant, H6-tagged (Arabidopsis thaliana, UniProt P52901 18-389, S292D | S298A); assay: as above; conditions: both partners purified
T2 sequence (looked up): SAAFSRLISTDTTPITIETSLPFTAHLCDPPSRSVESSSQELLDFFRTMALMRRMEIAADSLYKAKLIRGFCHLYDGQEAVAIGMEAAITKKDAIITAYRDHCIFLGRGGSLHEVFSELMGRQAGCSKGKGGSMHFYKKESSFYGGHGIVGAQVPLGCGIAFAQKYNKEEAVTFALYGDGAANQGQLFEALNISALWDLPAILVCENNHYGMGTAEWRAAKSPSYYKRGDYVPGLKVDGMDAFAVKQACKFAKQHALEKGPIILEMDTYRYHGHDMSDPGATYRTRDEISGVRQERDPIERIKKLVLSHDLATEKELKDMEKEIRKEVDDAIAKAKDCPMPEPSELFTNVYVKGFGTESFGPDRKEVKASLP

[3] = target: T3, AtPDC E1α D295A mutant, H6-tagged (Arabidopsis thaliana, UniProt P52901 18-389, D295A); assay: as above; conditions: both partners purified
T3 sequence (looked up): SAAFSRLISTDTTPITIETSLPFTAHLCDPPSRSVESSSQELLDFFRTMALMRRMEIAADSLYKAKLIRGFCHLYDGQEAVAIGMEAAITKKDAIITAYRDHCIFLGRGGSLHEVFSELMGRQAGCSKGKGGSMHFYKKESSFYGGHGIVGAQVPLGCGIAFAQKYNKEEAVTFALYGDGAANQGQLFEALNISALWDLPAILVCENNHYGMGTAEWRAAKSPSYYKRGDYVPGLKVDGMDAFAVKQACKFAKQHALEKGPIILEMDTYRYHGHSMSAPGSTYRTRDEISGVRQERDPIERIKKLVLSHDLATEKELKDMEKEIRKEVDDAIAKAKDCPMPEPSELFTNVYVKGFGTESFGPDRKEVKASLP

[4] = target: T4, AtPDC E1α D295L mutant, H6-tagged (Arabidopsis thaliana, UniProt P52901 18-389, D295L); assay: as above; conditions: both partners purified
T4 sequence (looked up): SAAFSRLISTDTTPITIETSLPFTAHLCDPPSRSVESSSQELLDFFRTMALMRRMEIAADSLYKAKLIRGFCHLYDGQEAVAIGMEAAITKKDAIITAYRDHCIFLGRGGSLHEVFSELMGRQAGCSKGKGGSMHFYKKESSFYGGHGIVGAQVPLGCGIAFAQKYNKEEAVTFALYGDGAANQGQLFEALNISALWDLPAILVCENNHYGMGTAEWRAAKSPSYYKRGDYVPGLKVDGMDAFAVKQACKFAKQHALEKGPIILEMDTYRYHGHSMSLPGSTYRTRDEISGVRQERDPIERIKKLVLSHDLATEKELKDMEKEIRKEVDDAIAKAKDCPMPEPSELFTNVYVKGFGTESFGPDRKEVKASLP

[5] = target: T5, Arabidopsis thaliana mitochondrial pyruvate dehydrogenase E1α subunit (AtPDC E1α), wild type, H6-tagged (Arabidopsis thaliana, UniProt P52901 18-389); assay: pull-down; H6-E1α and FLAG-E1β coexpressed in E. coli; soluble fraction on a HiTrap chelating column charged with NiSO4 (immobilized metal affinity chromatography); E1α detected with monoclonal anti-E1α, E1β with anti-FLAG by immunoblot; conditions: partners not purified
T5 sequence (looked up): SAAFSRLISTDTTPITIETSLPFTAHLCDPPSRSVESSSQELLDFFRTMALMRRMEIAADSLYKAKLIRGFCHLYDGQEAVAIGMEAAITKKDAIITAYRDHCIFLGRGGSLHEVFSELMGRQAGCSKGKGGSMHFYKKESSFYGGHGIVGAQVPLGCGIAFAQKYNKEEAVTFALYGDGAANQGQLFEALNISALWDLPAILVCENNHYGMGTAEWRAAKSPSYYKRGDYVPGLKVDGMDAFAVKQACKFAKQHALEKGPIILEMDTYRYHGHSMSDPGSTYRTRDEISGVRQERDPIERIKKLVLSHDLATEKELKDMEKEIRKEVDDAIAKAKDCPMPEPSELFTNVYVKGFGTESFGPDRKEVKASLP

Measured: binding result

B1: Arabidopsis thaliana mitochondrial pyruvate dehydrogenase E1β subunit (AtPDC E1β), FLAG-tagged (enzyme, UniProt Q38799 30-363, looked up)
chain: AAGAKEMTVRDALNSAIDEEMSADPKVFVMGEEVGQYQGAYKITKGLLEKYGPERVYDTPITEAGFTGIGVGAAYAGLKPVVEFMTFNFSMQAIDHIINSAAKSNYMSAGQINVPIVFRGPNGAAAGVGAQHSQCYAAWYASVPGLKVLAPYSAEDARGLLKAAIRDPDPVVFLENELLYGESFPISEEALDSSFCLPIGKAKIEREGKDVTIVTFSKMVGFALKAAEKLAEEGISAEVINLRSIRPLDRATINASVRKTSRLVTVEEGFPQHGVCAEICASVVEESFSYLDAPVERIAGADVPMPYAANLERLALPQIEDIVRASKRACYRSK
binds: [1] | [2] | [3] | [4] | [5]
